Experimental data from patent US20230064978A1, “CYCLIC PEPTIDE RECEPTOR LANTHIONINE SYNTHETASE C-LIKE PROTEIN (LANCL) AND USES THEREOF” (LATERAL IP PTY LTD, priority 2019, published 2023).
Bridges are numbered along the chain shown (N, C = ends). Where no end group is shown, it is not given here.

What was measured:
Type in all cases: binding
human recombinant LANCL1 = molecular target: T1, human recombinant LANCL1 (Homo sapiens, UniProt O43813); assay: In-gel fluorescence: photolabelling of recombinant LANCL1 with PAL probes, with or without excess competitor
T1 construct: purchased ABCAM ab181923; host or cells: E. coli
Method: The in-gel fluorescence protocol can be briefly described as follows:
1. LANCL1 Labelling, Assay on 96 Well Plate, Volume of the Reaction 40 μl in PBS
3 μg/well of human recombinant LANCL1 (ABCAM catalog no. ab181923, 1 mg/ml; expressed in E. Coli and incorporating an N-terminal 23 amino acid hexaHis tag; UniProtKB/Swiss-Prot Accession no: O43813);
• Vehicle DMSO • ±LAT8881 (a cyclic peptide fragment of human growth hormone; SEQ ID NO:1) • SEQ ID NO:1) as competitor @ 25, 50, 100 or 200 μM, pre-incubation 10 min, 4 μl of a stock solution 10-fold concentrated • ±LAT9991-PAL, LAT7771-PAL or LAT9993-PAL probes @ 1 μM, incubation 30 min at room temperature on a plate agitator (protected from light), 4 μl of a stock solution @10 μM
• Irradiation @ 365 nm 20 min (4° C., on a support containing ice) Transfer 40 μl in a clean Eppendorf tube
• Reduction: DTT 10 mM, 30 min @ 56° C. • Alkylation: Iodoacetamide 30 mM, 45 min @ RT Click-iT AzideTamra of 60 μL samples
(§1) • Acetone Precipitation −20° C. ON • Dry pellet resuspended in 30 μL 1% SDS in 50 mM Tris-HCl pH 7.5 • Photolabeled LANCL1 was tagged with tetramethylrhodamine (TAMRA) azide @100 μM TAMRA azide by copper click chemistry using the Click-iT Protein Reaction Buffer Kit (ThermoFisher Scientific) during 30 minutes • Precipitation using the chloroform-methanol method, pellet was air-dried for 10 min at room temperature, resuspended in 30 μL SDS loading buffer (Bio Rad's XT Sample Buffer containing 2.5% v/v 2-mercaptoethanol) and heated (60° C., 30 min)
(§2) • SDS-PAGE (4-15% Criterion™ TGX Stain-Free™ Protein Gel, Bio Rad) • Analyzed by in-gel fluorescence scanning using a ChemiDoc™ MP Imaging System (Bio Rad) with a green LED light as an excitation source and a BP600/20 nm emission filter

LANCL1 = LANCL1 (Rattus norvegicus, UniProt Q9QX69); assay: Streptavidin pull-down of probe-labelled proteins from spinal cord microsomal fraction, anti-LANCL1 Western Blot; set-up: from tissue; host or cells: rat spinal cord, microsomal fraction
Method: To confirm the LANCL1 enrichment observed by mass spectrometry sequencing pull-down experiments, commercial antibodies to LANCL1 (polyclonal rabbit anti-LANCL1, PA557107 from Invitrogen) were used to identify the presence of the LANCL1 in nerve microsome preparations. Briefly, rat spinal cord were lysed in lysate buffer, (sodium phosphate buffer 5 mM pH7.4, sucrose 0.32M+protease inhibitors (cOmplete ULTRA tablets from Roche, mini easy pack, 05892970001)). All the following steps were done on ice. The samples were homogenized, and the total extract centrifuged at 10000 g during 20 minutes. The supernatant was kept and the lysis step was repeated on the pellet adding 10 ml more of lysis buffer, followed by a new centrifugation step. This step extraction was done two times as described and the supernatants were pooled before centrifugation at 105000 g using the Ti50.2 Beckman rotor for 90 minutes at 4° C. The pellet was kept as a microsomal fraction and stored at −80° C. […] Images acquired with the ChemiDoc™ MP Imaging System were analyzed with Imagelab software (Bio-Rad).

human recombinant LANCL3 = molecular target: T2, human recombinant LANCL3 (Homo sapiens, UniProt Q6ZV70); assay: In-gel fluorescence: photolabelling of recombinant LANCL3 with PAL probe, with or without excess LAT8881
T2 construct: human recombinant LANCL3 (amino acid residues 1-420); 10xHis (N); Myc (C); purchased ABCAM ab163277; host or cells: E. coli
Method: An in-gel fluorescence protocol was followed to determine whether the cyclic peptides bound to LANCL2 and LANCL3. Briefly:
1. LANCL2 and LANCL3 Labelling, Assay on 96 Well Plate, Volume of the Reaction 40 μl in PBS
• […] of human recombinant LANCL3 (amino acid residues 1-420; ABCAM catalog no. ab163277, ˜0.07 mg/ml; expressed in E. Coli and incorporating an N-terminal 10×His tag and a C-terminal Mvc tag; UniProt Accession no: Q6ZV70);
• Vehicle DMSO • ±LAT8881 (a cyclic peptide fragment of human growth hormone; SEQ ID NO:1) • SEQ ID NO:1 as competitor @ 50, 100 or 200 μM, pre-incubation 10 min, […], incubation 30 min at room temperature on a plate agitator (protected from light), 4 μl of a stock solution @10 μM
• Irradiation @ 365 nm 20 min (4° C., on a support containing ice) • Transfer 40 μl in a clean Eppendorf tube
• Reduction: DTT 10 mM, 30 min @ 56° C. • Alkylation: Iodoacétamide 30 mM, 45 min @ RT Click-iT AzideTamra of 60 μL samples
as §1, with “for” for “during”, “Rad” for “Rad's”
as §2

T2 sequence (Q6ZV70 whole entry, the tested form may be a part): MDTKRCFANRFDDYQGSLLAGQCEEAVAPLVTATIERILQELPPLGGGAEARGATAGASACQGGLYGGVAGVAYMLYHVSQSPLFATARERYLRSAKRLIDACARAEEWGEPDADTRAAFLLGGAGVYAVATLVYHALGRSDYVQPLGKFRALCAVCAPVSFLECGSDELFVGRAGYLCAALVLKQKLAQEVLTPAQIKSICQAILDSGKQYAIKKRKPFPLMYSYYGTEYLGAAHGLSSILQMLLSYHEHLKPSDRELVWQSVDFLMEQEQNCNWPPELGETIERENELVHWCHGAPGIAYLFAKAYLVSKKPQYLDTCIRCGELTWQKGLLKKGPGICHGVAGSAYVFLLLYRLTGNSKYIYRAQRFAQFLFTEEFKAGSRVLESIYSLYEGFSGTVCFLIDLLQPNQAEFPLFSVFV
T1 sequence (O43813 with tags, fused parts or gaps): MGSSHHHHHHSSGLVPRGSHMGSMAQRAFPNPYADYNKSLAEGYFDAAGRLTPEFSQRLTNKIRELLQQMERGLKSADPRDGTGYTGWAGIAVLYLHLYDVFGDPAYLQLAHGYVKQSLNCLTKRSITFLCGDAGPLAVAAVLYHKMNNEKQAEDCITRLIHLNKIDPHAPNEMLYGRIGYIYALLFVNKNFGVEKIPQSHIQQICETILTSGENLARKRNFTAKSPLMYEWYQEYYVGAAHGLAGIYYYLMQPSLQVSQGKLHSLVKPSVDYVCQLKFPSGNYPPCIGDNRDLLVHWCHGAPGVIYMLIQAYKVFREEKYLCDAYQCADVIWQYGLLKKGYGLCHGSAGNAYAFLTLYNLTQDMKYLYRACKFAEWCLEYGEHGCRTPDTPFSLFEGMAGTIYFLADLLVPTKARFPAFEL
LANCL1, sequence (Q9QX69 whole entry): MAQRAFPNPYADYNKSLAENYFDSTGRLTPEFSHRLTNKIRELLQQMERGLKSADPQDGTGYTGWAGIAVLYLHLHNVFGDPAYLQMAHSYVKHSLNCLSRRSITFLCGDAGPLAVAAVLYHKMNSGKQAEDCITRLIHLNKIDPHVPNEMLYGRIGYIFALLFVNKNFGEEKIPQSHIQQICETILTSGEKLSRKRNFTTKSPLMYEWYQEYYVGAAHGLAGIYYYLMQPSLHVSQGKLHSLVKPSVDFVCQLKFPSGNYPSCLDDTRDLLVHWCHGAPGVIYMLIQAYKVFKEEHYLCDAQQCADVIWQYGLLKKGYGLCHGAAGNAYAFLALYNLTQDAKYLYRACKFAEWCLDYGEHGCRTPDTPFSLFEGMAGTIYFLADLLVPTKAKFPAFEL

Substance | Binding of PAL probe to recombinant LANCL1 (human recombinant LANCL1; in-gel fluorescence after UV (365 nm) cross-linking) | Detection of LANCL1 in eluates of probe pull-down (Western Blot) (LANCL1; 5 μM probe, rat spinal cord microsomal fraction) | Binding of PAL probe to recombinant LANCL3 (human recombinant LANCL3; in-gel fluorescence after UV cross-linking) | Inhibition of LAT7771-PAL binding to recombinant LANCL1 by excess competitor (human recombinant LANCL1; probe LAT7771-PAL, excess LAT8881) | Inhibition of LAT9991-PAL binding to recombinant LANCL1 by excess competitor (human recombinant LANCL1; probe LAT9991-PAL, excess unlabelled competitor) | Inhibition of LAT9993S-PAL binding to recombinant LANCL1 by excess competitor (human recombinant LANCL1; probe LAT9993S-PAL, excess LAT8881) | LANCL1 level in LAT9991-PAL pull-down eluate in presence of excess competitor (LANCL1; 50 μM competitor, 10-fold excess over LAT9991-PAL) | Inhibition of LAT9991-PAL binding to LANCL3 by excess competitor (human recombinant LANCL3; probe LAT9991-PAL, excess LAT8881) | Inhibition of LAT9993-PAL binding to recombinant LANCL3 by excess competitor (human recombinant LANCL3; probe LAT9993-PAL (as in FIG. 11 legend), excess LAT8881)
LAT9991-PAL: cyclic peptide of SEQ ID NO:12 (LAT9991) conjugated to the PAL (Photo-Activated Labelling) grouping (CRSVEGSCG; disulfide 1-8 (inferred); also: PAL group on N-terminal Cys-Arg part) | bound to recombinant LANCL1 | could only be detected in the eluates of LAT9991-PAL samples as a specifically bound protein | binds |  |  |  |  |  | 
YLRIVQCRSVEGSCGF [LAT8881, a cyclic peptide fragment of human growth hormone] |  |  |  | inhibited | inhibited | inhibited | reduced | inhibited | inhibited
